Results taken from the supplement of paper PMC6379048.

Assays:
Assay in all cases: EC50 of free RNA motif oligo competing protein binding to immobilised probe
[1] = biological target: MRPS27 (UniProt Q92552)
Summary of the method: (§1)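 HEK293-FT lysate (2.5 mg protein/well) was pre-incubated 1 h at 4°C with free RNA oligos (0 nM to 30 μM), then 30 min at 4°C with the same 5′-amino-C6 oligos coupled to NHS-Sepharose beads. Bound proteins were quantified by label-free LC-MS/MS in three biological replicates and two independent experiments, and normalised to the water control. EC50 came from a four-parameter log-logistic fit; Kd is EC50 times a protein-dependent depletion factor.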

[2] = biological target: MRPS25 (UniProt P82663)
Summary of the method: as §1

[3] = biological target: T1, MCM4 (UniProt P33991)
T1 sequence: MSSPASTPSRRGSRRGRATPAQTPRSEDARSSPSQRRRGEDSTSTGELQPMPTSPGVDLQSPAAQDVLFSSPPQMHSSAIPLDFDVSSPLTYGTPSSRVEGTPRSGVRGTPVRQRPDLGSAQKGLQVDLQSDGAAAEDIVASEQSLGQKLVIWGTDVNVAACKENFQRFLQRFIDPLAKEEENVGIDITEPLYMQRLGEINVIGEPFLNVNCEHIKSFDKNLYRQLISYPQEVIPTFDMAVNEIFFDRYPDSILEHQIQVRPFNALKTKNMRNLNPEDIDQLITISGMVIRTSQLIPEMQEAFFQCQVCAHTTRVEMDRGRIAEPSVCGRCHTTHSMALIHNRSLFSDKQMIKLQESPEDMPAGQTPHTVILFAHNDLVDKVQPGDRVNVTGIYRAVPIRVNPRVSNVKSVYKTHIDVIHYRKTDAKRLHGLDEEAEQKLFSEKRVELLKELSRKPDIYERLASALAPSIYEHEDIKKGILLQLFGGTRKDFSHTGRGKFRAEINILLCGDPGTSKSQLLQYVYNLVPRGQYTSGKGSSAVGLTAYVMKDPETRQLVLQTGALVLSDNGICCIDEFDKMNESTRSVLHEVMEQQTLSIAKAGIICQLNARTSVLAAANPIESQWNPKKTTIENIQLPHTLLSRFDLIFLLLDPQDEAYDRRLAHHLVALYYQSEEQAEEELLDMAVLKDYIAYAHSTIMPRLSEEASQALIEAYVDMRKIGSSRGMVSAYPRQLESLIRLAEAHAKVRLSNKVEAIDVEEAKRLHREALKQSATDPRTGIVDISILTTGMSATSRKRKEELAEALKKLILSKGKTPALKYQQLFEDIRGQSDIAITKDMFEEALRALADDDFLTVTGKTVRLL
Summary of the method: as §1

[4] = biological target: T2, DHX30 (UniProt Q7L2E3)
T2 sequence: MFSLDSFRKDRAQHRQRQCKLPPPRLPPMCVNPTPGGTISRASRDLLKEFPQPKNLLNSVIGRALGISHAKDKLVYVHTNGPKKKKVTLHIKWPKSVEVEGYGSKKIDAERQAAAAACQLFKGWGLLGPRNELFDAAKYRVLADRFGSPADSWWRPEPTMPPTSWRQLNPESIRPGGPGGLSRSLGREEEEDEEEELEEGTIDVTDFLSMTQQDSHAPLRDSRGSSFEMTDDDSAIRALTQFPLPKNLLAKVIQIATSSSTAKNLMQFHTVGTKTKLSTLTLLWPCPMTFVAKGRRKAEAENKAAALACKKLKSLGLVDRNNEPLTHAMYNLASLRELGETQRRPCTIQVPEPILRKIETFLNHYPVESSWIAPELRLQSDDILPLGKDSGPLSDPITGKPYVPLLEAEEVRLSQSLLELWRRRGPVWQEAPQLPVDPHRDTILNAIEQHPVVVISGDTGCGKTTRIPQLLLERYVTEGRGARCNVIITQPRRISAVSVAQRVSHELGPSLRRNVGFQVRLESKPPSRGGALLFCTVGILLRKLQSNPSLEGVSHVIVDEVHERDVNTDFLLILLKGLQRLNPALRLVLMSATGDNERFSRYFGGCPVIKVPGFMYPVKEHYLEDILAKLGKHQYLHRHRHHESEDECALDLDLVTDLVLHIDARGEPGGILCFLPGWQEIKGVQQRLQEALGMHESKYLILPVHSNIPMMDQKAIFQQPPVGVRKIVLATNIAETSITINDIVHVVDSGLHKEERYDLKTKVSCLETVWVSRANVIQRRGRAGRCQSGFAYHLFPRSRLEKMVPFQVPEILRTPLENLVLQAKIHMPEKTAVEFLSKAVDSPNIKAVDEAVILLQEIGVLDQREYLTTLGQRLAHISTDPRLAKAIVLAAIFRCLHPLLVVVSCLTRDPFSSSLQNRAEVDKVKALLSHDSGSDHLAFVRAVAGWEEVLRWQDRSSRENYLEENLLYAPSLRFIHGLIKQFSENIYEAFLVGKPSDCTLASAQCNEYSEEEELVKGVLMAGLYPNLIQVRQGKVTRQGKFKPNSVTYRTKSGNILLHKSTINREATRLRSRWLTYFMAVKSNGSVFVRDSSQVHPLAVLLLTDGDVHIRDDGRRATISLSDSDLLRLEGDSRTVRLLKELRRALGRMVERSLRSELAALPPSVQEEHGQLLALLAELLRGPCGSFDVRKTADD
Summary of the method: as §1

Sequence: UAUUUAU
- EC50 [1]: 82.5 nM
- EC50 [2]: 17.4 nM

Sequence: AAUAAA
- EC50 [3]: 50 nM

Sequence: CUGUCCU
- EC50 [4]: 113 nM
